B1: MRE4 (dsDNA)
DNA 1: TATCTCACCTCTCACCTCTCACCGT
DNA 2: ACGGTGAGAGGTGAGAGGTGAGATA
B2: MRE3 (dsDNA)
DNA 1: TCTAACCTACTAACCTACTAACCTACCA
DNA 2: TGGTAGGTTAGTAGGTTAGTAGGTTAGA
B3: Site1-type (GT-3a) (dsDNA)
DNA 1: GCGTTACCGTTACCGTTACCAA
DNA 2: TTGGTAACGGTAACGGTAACGC

The binders below were run against T1, GhGT26 (GST fusion) (Gossypium hirsutum, UniProt A0A8J9W0A6 1-391) (assay: EMSA; signal dramatically reduced by unlabeled competitor; Oligos annealed in 50 mM NaCl (70 °C 5 min, then room temperature); EMSA binding buffer, pH and temperature not given (as in ref. 48)). Conditions: protein: recombinant; tags: GST (pGEX6p-1); label: digoxigenin; blunt (reverse complement stated).
T1 sequence: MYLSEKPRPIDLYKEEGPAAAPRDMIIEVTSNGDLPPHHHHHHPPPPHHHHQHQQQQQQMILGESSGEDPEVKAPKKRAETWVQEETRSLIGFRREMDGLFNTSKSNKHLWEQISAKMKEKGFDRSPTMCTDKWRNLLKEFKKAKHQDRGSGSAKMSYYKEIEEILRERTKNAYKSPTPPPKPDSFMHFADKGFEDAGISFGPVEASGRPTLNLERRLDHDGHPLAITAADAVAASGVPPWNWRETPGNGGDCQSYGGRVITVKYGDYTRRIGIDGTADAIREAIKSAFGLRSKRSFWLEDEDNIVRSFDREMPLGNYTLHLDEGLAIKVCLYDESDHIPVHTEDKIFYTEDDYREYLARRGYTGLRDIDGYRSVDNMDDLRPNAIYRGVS

Binding result, binds:
B1, B2, B3
